In US20110318347A1:

What was measured:
[1] = molecular target: human CXCR4 (human)
[2] = molecular target: CCR5 (UniProt P51681); test: cell-based or functional assay
[3] = molecular target: human CXCR4 (human); test: cell-based or functional assay
[4] = molecular target: human CXCR4 (human); test: competition with [125I]-238D2 on HEK293T-CXCR4 membranes
[5] = molecular target: human CXCR4 (human); test: competition with [125I]-238D4 on HEK293T-CXCR4 membranes
[6] = molecular target: human CXCR4 (human); test: competition with [125I]-CXCL12 on HEK293T-CXCR4 membranes
[7] = molecular target: human CXCR4 (human); test: competition vs [125I]-238D2 (3 nM), membranes of HEK293T cells expressing CXCR4
[8] = molecular target: human CXCR4 (human); test: competition vs [125I]-238D4 (3 nM), membranes of HEK293T cells expressing CXCR4
[9] = molecular target: human CXCR4 (human); test: competition vs [125I]-CXCL12 (40 pM), membranes of HEK293T cells expressing CXCR4
[10] = molecular target: human CXCR4 (human); test: periplasmic fraction (1:10), displacement of [125I]-CXCL12, HEK293T-CXCR4 membranes; - = 0-29%, + = 30-69%, ++ = 70-100%

CCR5, sequence (P51681 whole entry): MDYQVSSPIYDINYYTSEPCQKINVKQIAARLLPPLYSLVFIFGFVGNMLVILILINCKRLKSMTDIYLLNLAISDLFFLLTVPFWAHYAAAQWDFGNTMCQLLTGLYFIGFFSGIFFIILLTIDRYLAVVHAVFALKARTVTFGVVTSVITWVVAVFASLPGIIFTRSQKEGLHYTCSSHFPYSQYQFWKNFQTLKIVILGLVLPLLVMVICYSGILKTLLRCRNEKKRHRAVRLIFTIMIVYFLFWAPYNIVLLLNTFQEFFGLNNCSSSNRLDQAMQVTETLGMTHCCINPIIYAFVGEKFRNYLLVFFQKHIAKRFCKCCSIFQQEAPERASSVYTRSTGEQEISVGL

B1: Nanobody 238D4 (VHH, from a related filing, part only)
VHH: EVQLMESGGGLVQAGGSLRLSCAASGRTFNNYAMGWFRRAPGKEREFVAAITRSGVRSGVSAIYGDSVKDRFTISRDNAKNTLYLQMNSLKPEDTAVYTCAASAIGSGALRRFEYDYSGQGTQVTVSS
IC50 (read off the curve), migration of Jurkat cells towards 0.3 nM CXCL12 [1]: 9 nM | Anti-HIV-1 activity (in nM), PBMC/BaL [2]: > 100 nM | Anti-HIV-1 activity (in nM), U87.CD4.CCR5/BaL [2]: > 500 nM | IC50, HIV-1 BaL, PBMC donor 1 [2]: > 1 µg/mL | IC50, HIV-1 BaL, PBMC donor 2 [2]: > 1 µg/mL | IC90, HIV-1 BaL, PBMC donor 1 [2]: > 1 µg/mL | IC90, HIV-1 BaL, PBMC donor 2 [2]: > 1 µg/mL | nM IC50, HIV-1 BAL, PBMC donor 1 [2]: > 67 nM | nM IC50, HIV-1 BAL, PBMC donor 2 [2]: > 67 nM | Anti-HIV-1 activity (in nM), MT-4/HE [3]: 82 nM | Anti-HIV-1 activity (in nM), MT-4/NL4.3 [3]: 40.3 nM | Anti-HIV-1 activity (in nM), PBMC/HE [3]: 13.6 nM | Anti-HIV-1 activity (in nM), PBMC/NL4.3 [3]: 13.7 nM | Anti-HIV-1 activity (in nM), U87.CD4.CXCR4/NL4.3 [3]: 107 nM | CRE activation, HEK293T-CXCR4-CREbgal/0.01-100 nM CXCL12, Imax (%) [3]: 90% | CRE activation, HEK293T-CXCR4-CREbgal/0.01-100 nM CXCL12, pKi or pIC50 (pKB by the text) [3]: 7.7 | Chemotaxis, Jurkat/0.3 nM CXCL12, Imax (%) [3]: 101% | Chemotaxis, Jurkat/0.3 nM CXCL12, pKi or pIC50 [3]: 8.31 | IC50, HIV-1 NL4.3, MT-4 cells, exp. 1 [3]: 0.833 µg/mL | IC50, HIV-1 NL4.3, PBMC donor 1 [3]: > 1 µg/mL | IC50, HIV-1 NL4.3, PBMC donor 2 [3]: 0.551 µg/mL | IC50, HIV-1 UG270, PBMC donor 1 [3]: > 1 µg/mL | IC50, HIV-1 UG270, PBMC donor 2 [3]: > 1 µg/mL | IC90, HIV-1 NL4.3, MT-4 cells, exp. 1 [3]: > 1 µg/mL | IC90, HIV-1 NL4.3, PBMC donor 1 [3]: > 1 µg/mL | IC90, HIV-1 NL4.3, PBMC donor 2 [3]: > 1 µg/mL | IC90, HIV-1 UG270, PBMC donor 1 [3]: > 1 µg/mL | IC90, HIV-1 UG270, PBMC donor 2 [3]: > 1 µg/mL | IP accumulation, HEK293T-CXCR4-Gαqi5/30 nM CXCL12, Imax (%) [3]: 90% | IP accumulation, HEK293T-CXCR4-Gαqi5/30 nM CXCL12, pKi or pIC50 [3]: 8.39 | nM IC50, HIV-1 NL4.3, PBMC donor 1 [3]: > 67 nM | nM IC50, HIV-1 NL4.3, PBMC donor 2 [3]: 36.7 nM | nM IC50, HIV-1 UG270, PBMC donor 1 [3]: > 67 nM | nM IC50, HIV-1 UG270, PBMC donor 2 [3]: > 67 nM | IC50 (read off the curve) [4]: 3 nM | IC50 (read off the curve) [5]: 4 nM | IC50 (read off the curve) [6]: 10 nM | Displacem. (%) [7]: 101% | pKi [7]: 8.8 | Displacem. (%) [8]: 103% | pKi [8]: 8.55 | Displacem. (%) [9]: 99% | pKi [9]: 8.22 | percent inhibition of specific [125I]-CXCL12 binding [10]: 70 to 100%
